Data as given in publication PMC6635533.
Values joined by “and” are separate entries in the source; they are usually repeats but may differ in a detail not shown here. Equal values may be shown once.

Assays:
[1] = target: RocA cytoplasmic domain (amino acids 226 to 451) with a C-terminal FLAG tag, expressed in GAS M18 strain H566 (strain CYT_F) (Streptococcus pyogenes (group A Streptococcus), serotype M1 strain 854); assay: cross-linking; live GAS M18 strains treated with 1% formaldehyde (10 min, room temperature), quenched with 250 mM glycine; protoplast preparations, SDS-PAGE, anti-FLAG blot
[2] = target: RocAM1 with a C-terminal FLAG tag, full length (amino acids 1 to 451), expressed in GAS M18 strain H566 (strain M1_F) (Streptococcus pyogenes (group A Streptococcus), serotype M1 strain 854); assay: as above
[3] = target: RocAM3 with a C-terminal FLAG tag (amino acids 1 to 416), expressed in GAS M18 strain H566 (strain M3_F) (Streptococcus pyogenes (group A Streptococcus), serotype M3 strain 188); assay: as above
[4] = target: RocA_(FLAG) expressed from a single chromosomal copy in GAS M1 strain 854 (strain 854_chF) (Streptococcus pyogenes (group A Streptococcus), serotype M1 strain 854); assay: cross-linking; formaldehyde cross-linking with GAS M1 strain 854_chF (native expression level); RocA_(FLAG) affinity purified from the protoplast lysate for detection by anti-FLAG blot

## RocA cytoplasmic domain (amino acids 226 to 451) with a C-terminal FLAG tag, expressed in GAS M18 strain H566 (strain CYT_F) (domain or fragment)
[1]
  stoichiometry N: 2

## RocAM1 with a C-terminal FLAG tag, full length (amino acids 1 to 451), expressed in GAS M18 strain H566 (strain M1_F) (natural protein)
[2]
  stoichiometry N: 2 and 4

## RocAM3 with a C-terminal FLAG tag (amino acids 1 to 416), expressed in GAS M18 strain H566 (strain M3_F) (natural protein)
[3]
  stoichiometry N: 2

## RocA_(FLAG) expressed from a single chromosomal copy in GAS M1 strain 854 (strain 854_chF) (natural protein)
[4]
  stoichiometry N: 2
